Consider eight molecules from publication PMC5678113, “Substrate Specificity and Allosteric Regulation of a D-Lactate Dehydrogenase from a Unicellular Cyanobacterium are Altered by an Amino Acid Substitution” (Scientific Reports, 2017).

Changes are numbered by the printed parent chain. Numbers in names are those of the source.

Holding throughout (test): NADH oxidation followed at A340
The target in data set [1] is T1, SyDdh (GST-SyDdh) (Synechocystis sp. PCC 6803, UniProt P74586, Q14E).
T1 construct: gene ddh; Full ddh ORF, GST-tagged (tag kept, pGEX5X-1), expressed in E. coli DH5alpha, glutathione-Sepharose purified
It counts as biochemical. The note with it: pH 7.5, 30 °C, 0.1 mM NADH, no Mg2+; substrate inhibition. The source says: (§1) NADH oxidation followed at A340 on SyDdh (GST-SyDdh)

The target in data set [2] is T2, SyDdh (GST-SyDdh) (Synechocystis sp. PCC 6803, UniProt P74586).
T2 construct: gene ddh; Full ddh ORF, GST-tagged (tag kept, pGEX5X-1), expressed in E. coli DH5alpha, glutathione-Sepharose purified
T2 sequence (P74586 1-333): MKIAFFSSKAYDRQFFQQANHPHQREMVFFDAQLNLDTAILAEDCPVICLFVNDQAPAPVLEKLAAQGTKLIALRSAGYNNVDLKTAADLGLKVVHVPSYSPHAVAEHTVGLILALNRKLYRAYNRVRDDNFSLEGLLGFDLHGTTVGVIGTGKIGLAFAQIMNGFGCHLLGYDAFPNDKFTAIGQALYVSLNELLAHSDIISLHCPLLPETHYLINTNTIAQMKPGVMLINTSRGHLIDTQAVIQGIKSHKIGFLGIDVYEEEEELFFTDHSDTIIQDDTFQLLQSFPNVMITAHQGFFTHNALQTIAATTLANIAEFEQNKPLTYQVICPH
It counts as biochemical. To be noted: for remaining activity at 2500 µM: read-out: % residual activity at 2.5 mM.

For data set [3], the target named is T3, SyDdh (GST-SyDdh) (Synechocystis sp. PCC 6803, UniProt P74586, S234G).
T3 construct: gene ddh; Full ddh ORF, GST-tagged (tag kept, pGEX5X-1), expressed in E. coli DH5alpha, glutathione-Sepharose purified
It counts as biochemical. To be noted: pH 7.5, 30 °C, 0.1 mM NADH, no Mg2+; substrate inhibition.
Excerpt: as §1

Data set [4] concerns the target T2, SyDdh (GST-SyDdh). It counts as biochemical. To be noted: pH 7.5, 30 °C, 0.1 mM NADH, no Mg2+; substrate inhibition.
Excerpt: as §1

Substrate in data set [5]: NC(=O)C1=CN([C@@H]2O[C@H](COP(=O)(O)OP(=O)(O)OC[C@H]3O[C@@H](n4cnc5c(N)ncnc54)[C@H](O)[C@@H]3O)[C@@H](O)[C@H]2O)C=CC1
Format: biochemical, Synechocystis sp. PCC 6803. The note with it: pH 7.5, 30 °C, varied: cofactor.

Substrate in data set [6]: CC(=O)C(=O)O
Format: biochemical, Synechocystis sp. PCC 6803. To be noted: pH 7.5, 30 °C, 0.1 mM NADH, no Mg2+, Hill coefficient 2.51.

Substrate in data set [7]: O=C(O)CC(=O)C(=O)O
Format: biochemical, Synechocystis sp. PCC 6803. The note with it: pH 7.5, 30 °C, 0.1 mM NADH, no Mg2+.
Excerpt: as §1

Substrate in data set [8]: CC(=O)C(=O)O
It counts as biochemical, Synechocystis sp. PCC 6803. The note with it: pH 7.5, 30 °C, 0.1 mM NADH, no Mg2+.
Excerpt: as §1

As usually defined, the kcat is the number of substrate molecules converted per active site and unit of time at saturation. The term kcat/Km denotes the second-order rate constant that governs catalysis at low substrate concentration.

T1 sequence (P74586 entry or part of it Q14E): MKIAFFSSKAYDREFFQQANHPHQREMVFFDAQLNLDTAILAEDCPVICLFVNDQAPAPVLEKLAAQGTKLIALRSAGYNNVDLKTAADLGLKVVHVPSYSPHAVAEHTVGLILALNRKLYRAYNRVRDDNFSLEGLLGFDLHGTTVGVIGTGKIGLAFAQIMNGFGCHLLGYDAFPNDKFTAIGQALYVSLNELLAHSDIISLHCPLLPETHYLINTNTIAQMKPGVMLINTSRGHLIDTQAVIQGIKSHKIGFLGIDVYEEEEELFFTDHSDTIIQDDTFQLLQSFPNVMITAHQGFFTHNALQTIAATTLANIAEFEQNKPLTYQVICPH
T3 sequence (P74586 entry or part of it S234G): as the sequence (P74586 entry or part of it Q14E) above, with E14Q, S234G counted along it

`CC(=O)C(=O)O` [pyruvate]: the “K i” value on SyDdh (GST-SyDdh) [1] stood at 16.51 ± 5.98 mM.

As for `NC(=O)C(=O)O` [oxamate], the remaining activity at 2500 µM on SyDdh (GST-SyDdh) [2] was 42%.

For the molecule `O=C(O)CC(=O)C(=O)O` [oxaloacetate], the “K i” value amounted to 5.74 ± 1.04 mM at SyDdh (GST-SyDdh) [3] and 8.56 ± 3.39 mM at SyDdh (GST-SyDdh) [4].

Take `O=P(O)(O)OC[C@H]1OC(O)(COP(=O)(O)O)[C@@H](O)[C@@H]1O` (some centres unmarked) [FBP]: the activity at 2500 µM on SyDdh (GST-SyDdh) [2] (read-out: % activity at 2.5 mM) is 134%.

As for `Nc1ncnc2c1ncn2[C@@H]1O[C@H](COP(=O)(O)OP(=O)(O)OP(=O)(O)O)[C@@H](O)[C@H]1O` [ATP], the remaining activity at 2500 µM on SyDdh (GST-SyDdh) [2] came out at 72%.

B1: SyDdh (GST-SyDdh) (Synechocystis sp. PCC 6803 substr. Kazusa) (protein)
chain: T2 sequence (P74586 1-333)
notes: Full ddh ORF, GST-tagged (tag kept, pGEX5X-1), expressed in E. coli DH5alpha, glutathione-Sepharose purified
Consider B1, for which, in data set [5], the K0.5 is recorded as 0.028 ± 0.002 mM and the kcat was found to be 2.60 ± 0.25 s⁻¹. Besides, in data set [6], the K0.5 is on record as 0.38 ± 0.04 mM, the kcat amounted to 2.71 ± 0.26 s⁻¹ and the kcat/Km stood at 7140 ± 1150 M⁻¹ s⁻¹.

B2: SyDdh (GST-SyDdh) (Synechocystis sp. PCC 6803 substr. Kazusa; S234G) (protein)
chain: T2 sequence (P74586 1-333) with S234G
notes: as for B1
Turning to B2, in data set [7] (substrate-inhibition fit), the K0.5 came out at 0.59 ± 0.05 mM, the catalytic constant (kcat) was found to be 1.27 ± 0.24 s⁻¹ and the kcat/Km was 2190 ± 520 M⁻¹ s⁻¹. Moreover, in data set [8] (Hill coefficient 1.64), the K0.5 stood at 2.10 ± 0.18 mM, the kcat was 1.71 ± 0.26 s⁻¹ and the specificity constant (kcat/Km) worked out at 820 ± 130 M⁻¹ s⁻¹.

B3: SyDdh (GST-SyDdh) (Synechocystis sp. PCC 6803 substr. Kazusa; Q14E) (protein)
chain: T2 sequence (P74586 1-333) with Q14E
notes: as for B1
On to B3, for which, in data set [7] (Hill coefficient 0.95), the K0.5 came to 1.71 ± 0.38 mM, the kcat was determined as 2.38 ± 0.1 s⁻¹ and the kcat/Km turned out to be 1460 ± 310 M⁻¹ s⁻¹. Also, in data set [8] (substrate-inhibition fit), the K0.5 was found to be 0.52 ± 0.10 mM, the kcat stood at 4.11 ± 0.71 s⁻¹ and the kcat/Km was 7980 ± 350 M⁻¹ s⁻¹.
